Measurements: PMC11479944

What was measured:
[1] = molecular target: GluA2 N-terminal domain (isolated GluA2 NTD) (rat); assay: SEC-MALS; GluA2 NTD injected at 13 mg/mL and 1 mg/mL (legend; the text says 1-2 mg ml^-1), 100 µl samples, Superdex S200 10/300, 10 mM HEPES, 150 mM KCl, pH 7.5; only dimers seen, no step from dimers to tetramer
[2] = molecular target: rat GluA2flip(Q) isoform, tagged with a FLAG epitope near its C terminus (rat)

## GluA2 N-terminal domain (isolated GluA2 NTD) (domain or fragment)
[1]
  stoichiometry N: 2

## rat GluA2flip(Q) isoform, tagged with a FLAG epitope near its C terminus (receptor)
[2]
  recovery from desensitization, patch-clamp recordings of GluA2 expressed in HEK293 cells, switching from pH 7.4 to pH 5.5 (pH 6.4 also tested): 2 fold
